From the supplement of paper PMC7877785
± gives the uncertainty stated by the source.

Test: self-splicing fitness, log relative to wild type (ln ratio); higher = more splicing; Tetrahymena group I intron in knt gene, E. coli kanamycin selection, DiMSum; sequences stand for … in CUCUCU…GGAGGGAAAAGUUAUCAGGCAUGCACCUGGUAGCUAGUCUUUAAACCAAUAGAUUGCAUCGGUUUAAAAGGCAAGACCGUCAAAUUGCGGGAAAGGGGUCAACAGCCGUUCAGUACCAAGUCUCAGGGGAAACUUUGAGAUGGCCUUGCAAAGGGUAUGGUAAUAAGCUGACGGACAUGGUCCUAACCACGCAGCCAAGUCCUAAGUCAACAGAUCUUCUGUUGAUAUGGAUGCAGUUCACAGACUAAAUGUCGGUCGGGGAAGAUGUAUUCUUCUCAUAAGAUAUAGUCGGACCUCUCCUUAAUGGGAGCUAGCGGAUGAAGUGAUGCAACACUGGAGCCGCUGGGAACUAAUUUGUAUGCGAAAGUAUAUUGAUUAGUUUUGGAGUACUCGUGGUCG
In short: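 Pooled colonies went to amplicon sequencing on an Illumina HiSeq 2500 after six replicate transformations. The plates were LB agar with 100 μg/mL carbenicillin, 50 μM IPTG and 0.2% rhamnose, with or without 25 μg/mL kanamycin, incubated overnight at 37°C or 30°C. The E. coli BL21(DE3) library had all eight P1ex-region intron nucleotides randomised, the intron placed in the knt kanamycin-resistance gene on pET-22b(+). DiMSum fitness is the error-weighted combination of replicate fold changes, kanamycin against none, normalised to wild type.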

Sequence | self-splicing fitness (ln) (30 °C) | self-splicing fitness (ln) (37 °C)
UUACAGCAAUAUUACGAGCC | -2.86 ± 0.44 | -1.13 ± 0.31
UUACAGCAAUAUUACGAUGC | -3.18 ± 0.27 | -2.95 ± 0.36
UUACAGCAAUAUUACGAUGU | -4.69 ± 0.39 | -2.86 ± 0.23
UUACAGCAAUAUUACGCAGG | -1.79 ± 0.14 | -1.44 ± 0.14
UUACAGCAAUAUUACGCAGU | -4.23 ± 0.31 | -2.55 ± 0.28
UUACAGCAAUAUUACGCCAC | – | -2.7 ± 0.43
UUACAGCAAUAUUACGCCAG | -1.74 ± 0.15 | -1.05 ± 0.21
UUACAGCAAUAUUACGCCCA | -1.62 ± 0.32 | -0.254 ± 0.3
UUACAGCAAUAUUACGCCGG | -0.726 ± 0.094 | -0.416 ± 0.13
UUACAGCAAUAUUACGCGGG | -2.33 ± 0.14 | -0.688 ± 0.12
UUACAGCAAUAUUACGCUCC | -1.45 ± 0.24 | -1.3 ± 0.24
UUACAGCAAUAUUACGCUCU | -1.01 ± 0.074 | -0.47 ± 0.087
UUACAGCAAUAUUACGCUGU | -3.49 ± 0.27 | -2.37 ± 0.34
UUACAGCAAUAUUACGCUUU | -3.28 ± 0.25 | -2.08 ± 0.18
UUACAGCAAUAUUACGGAUG | -2.18 ± 0.1 | -0.325 ± 0.1
UUACAGCAAUAUUACGGCGG | -0.579 ± 0.087 | 0.426 ± 0.13
UUACAGCAAUAUUACGGGUU | -3.73 ± 0.12 | -2.34 ± 0.12
UUACAGCAAUAUUACGGUAA | -2.33 ± 0.2 | -1.68 ± 0.17
UUACAGCAAUAUUACGGUCC | -1.95 ± 0.16 | -1.03 ± 0.16
UUACAGCAAUAUUACGUAGU | -2.7 ± 0.15 | -3.5 ± 0.33
UUACAGCAAUAUUACGUAUA | -1.59 ± 0.11 | -0.688 ± 0.14
UUACAGCAAUAUUACGUCGU | -3.81 ± 0.16 | -2.26 ± 0.14
UUACAGCAAUAUUACGUUAC | -3.56 ± 0.28 | -3.03 ± 0.27
UUACAGCAAUAUUACGUUAG | -0.713 ± 0.086 | 0.208 ± 0.12
UUACAGCAAUAUUACGUUGA | -1.57 ± 0.1 | -0.574 ± 0.1

Sequence | self-splicing fitness (ln) (30 °C) | self-splicing fitness (ln) (37 °C)
UUACAGCAAUAUUACGUUUC | -3.05 ± 0.17 | -2.53 ± 0.25
UUAGAGCAAUAUUACGAAAG | -2.9 ± 0.4 | -0.494 ± 0.35
UUAGAGCAAUAUUACGAACA | -2.48 ± 0.19 | -0.84 ± 0.19
UUAGAGCAAUAUUACGACGA | 0.428 ± 0.12 | 0.651 ± 0.15
UUAGAGCAAUAUUACGAGGG | – | -2.64 ± 0.44
UUAGAGCAAUAUUACGAUCA | -1.52 ± 0.16 | -0.808 ± 0.17
UUAGAGCAAUAUUACGAUCU | -2.45 ± 0.24 | -3.11 ± 0.3
UUAGAGCAAUAUUACGCAAU | -2.21 ± 0.2 | -1.52 ± 0.41
UUAGAGCAAUAUUACGCCGA | -0.286 ± 0.14 | 0.255 ± 0.18
UUAGAGCAAUAUUACGCCUG | -0.457 ± 0.11 | 0.235 ± 0.18
UUAGAGCAAUAUUACGCGAG | -0.443 ± 0.084 | -0.0681 ± 0.094
UUAGAGCAAUAUUACGGACA | -2.08 ± 0.13 | -0.655 ± 0.16
UUAGAGCAAUAUUACGGAUC | – | -1.56 ± 0.4
UUAGAGCAAUAUUACGGUAA | -1.34 ± 0.086 | -0.0767 ± 0.11
UUAGAGCAAUAUUACGGUAG | -1.27 ± 0.12 | -0.297 ± 0.14
UUAGAGCAAUAUUACGGUGG | -1.95 ± 0.12 | -0.679 ± 0.13
UUAGAGCAAUAUUACGUACC | – | -0.711 ± 0.48
UUAGAGCAAUAUUACGUGAG | -1.88 ± 0.083 | -0.875 ± 0.13
UUAUAGCAAUAUUACGACAU | -2.471 ± 0.021 | -1.55 ± 0.036
UUAUAGCAAUAUUACGACUG | -1.05 ± 0.14 | -0.662 ± 0.15
UUAUAGCAAUAUUACGAUCC | – | -2.87 ± 0.26
UUAUAGCAAUAUUACGAUUG | -1.01 ± 0.13 | -0.505 ± 0.2
UUAUAGCAAUAUUACGCGUG | -0.968 ± 0.11 | -0.618 ± 0.13
UUAUAGCAAUAUUACGCUAC | – | -1.33 ± 0.45
UUAUAGCAAUAUUACGCUCC | -2.11 ± 0.24 | 0.501 ± 0.45

Sequence | self-splicing fitness (ln) (30 °C) | self-splicing fitness (ln) (37 °C)
UUAUAGCAAUAUUACGGCUU | -1.99 ± 0.17 | -0.583 ± 0.18
UUAUAGCAAUAUUACGGUGU | -3.63 ± 0.31 | -2.23 ± 0.3
UUAUAGCAAUAUUACGUGCC | -2.08 ± 0.27 | -0.756 ± 0.35
UUAUAGCAAUAUUACGUUAA | -2.07 ± 0.29 | -1.61 ± 0.22
UUAUAGCAAUAUUACGUUAU | – | -2.31 ± 0.34
UUAUAGCAAUAUUACGUUCG | -0.942 ± 0.091 | 0.154 ± 0.14
UUAUAGCAAUAUUACGUUCU | -2.18 ± 0.15 | -1.11 ± 0.16
UUCAAGCAAUAUUACGAAUC | -4.05 ± 0.3 | -2.75 ± 0.32
UUCAAGCAAUAUUACGAAUU | -3.21 ± 0.24 | -1.69 ± 0.27
UUCAAGCAAUAUUACGACAU | -1.614 ± 0.014 | -0.69 ± 0.033
UUCAAGCAAUAUUACGAGUA | -0.831 ± 0.083 | -0.136 ± 0.089
UUCAAGCAAUAUUACGAGUC | -3.3 ± 0.31 | -1.93 ± 0.26
UUCAAGCAAUAUUACGAUAA | -0.317 ± 0.048 | 0.226 ± 0.059
UUCAAGCAAUAUUACGAUAU | -2.7 ± 0.18 | -1.42 ± 0.18
UUCAAGCAAUAUUACGCACA | -0.531 ± 0.089 | 0.153 ± 0.13
UUCAAGCAAUAUUACGCAUU | -3.98 ± 0.26 | -1.27 ± 0.13
UUCAAGCAAUAUUACGCCGA | -0.5 ± 0.18 | -0.423 ± 0.23
UUCAAGCAAUAUUACGCGUA | -1.17 ± 0.14 | -0.0781 ± 0.1
UUCAAGCAAUAUUACGCGUG | -3.38 ± 0.17 | -2.13 ± 0.17
UUCAAGCAAUAUUACGGAGA | -1.55 ± 0.18 | -1.32 ± 0.19
UUCAAGCAAUAUUACGGAGC | -2.66 ± 0.28 | -1.8 ± 0.23
UUCAAGCAAUAUUACGGCGU | -1.61 ± 0.094 | -0.465 ± 0.12
UUCAAGCAAUAUUACGUCAA | -0.772 ± 0.092 | -0.645 ± 0.1
UUCAAGCAAUAUUACGUCCA | -1.12 ± 0.11 | -0.803 ± 0.098
UUCAAGCAAUAUUACGUGAU | -1.8 ± 0.096 | -0.468 ± 0.11

Sequence | self-splicing fitness (ln) (30 °C) | self-splicing fitness (ln) (37 °C)
UUCAAGCAAUAUUACGUUCG | -1.96 ± 0.12 | -1.44 ± 0.12
UUCCAGCAAUAUUACGAAAU | -2.78 ± 0.36 | -1.58 ± 0.32
UUCCAGCAAUAUUACGACAC | -3.32 ± 0.19 | -2.18 ± 0.19
UUCCAGCAAUAUUACGACGC | -3.25 ± 0.24 | -3.03 ± 0.17
UUCCAGCAAUAUUACGACUA | -0.435 ± 0.097 | -0.117 ± 0.085
UUCCAGCAAUAUUACGAGAC | -2.82 ± 0.27 | -1.79 ± 0.32
UUCCAGCAAUAUUACGAGUC | -2.56 ± 0.13 | -1.13 ± 0.15
UUCCAGCAAUAUUACGAUUC | -1.5 ± 0.17 | -2.04 ± 0.27
UUCCAGCAAUAUUACGCACA | -0.0937 ± 0.12 | -0.0969 ± 0.13
UUCCAGCAAUAUUACGCGCA | -0.0641 ± 0.12 | -0.358 ± 0.14
UUCCAGCAAUAUUACGCGGA | -2.74 ± 0.24 | -3.39 ± 0.33
UUCCAGCAAUAUUACGCGUA | -0.454 ± 0.087 | 0.0549 ± 0.083
UUCCAGCAAUAUUACGCGUC | -1.59 ± 0.16 | -0.827 ± 0.18
UUCCAGCAAUAUUACGCGUU | -2.35 ± 0.1 | -1.6 ± 0.1
UUCCAGCAAUAUUACGGACC | -1.77 ± 0.14 | -0.818 ± 0.16
UUCCAGCAAUAUUACGGAUA | -0.966 ± 0.092 | -0.56 ± 0.098
UUCCAGCAAUAUUACGGCGC | -2.61 ± 0.14 | -0.177 ± 0.12
UUCCAGCAAUAUUACGGGUC | -2.91 ± 0.17 | -2.12 ± 0.25
UUCCAGCAAUAUUACGGGUU | -2.05 ± 0.1 | -1.39 ± 0.13
UUCCAGCAAUAUUACGGUUG | -2.43 ± 0.11 | -1.75 ± 0.16
UUCCAGCAAUAUUACGUACU | – | -1.82 ± 0.21
UUCCAGCAAUAUUACGUCAU | -3.65 ± 0.2 | -2.72 ± 0.2
